Source: US9987242B2, “Treatment of Levodopa-induced Dyskinesias” (NORTHWESTERN UNIVERSITY, priority 2015, dated 2018)
“Also recorded” adds a separate entry of the source.

Key:
[1] = tested on: primate dyskinetic scores; assay: Primate dyskinesia scores; assay type: in vivo; settings: with L-DOPA; n=4
Text: FIG. 12. Plot of sum of primate dyskinesia scores (median) as a function of time (Fr=11.64, n=4; p<0.01, Friedman's test).
(§1) FIG. 18. […] Data are represented as median.

[2] = tested on: PD disability; assay: Primate PD disability (anti-parkinsonian effect of L-DOPA); assay type: in vivo; settings: with L-DOPA; n=4; p>0.05
Text: as §1

[3] = tested on: iSPNs; assay: Spike-timing-dependent LTD induction (post-pre pairing) in iSPNs, ex vivo slices; assay type: cell-based, mice; settings: MT3 100 nM
Experimental: Mice were deeply anesthetized intraperitoneally with a mixture of ketamine (50 mg kg−1) and xylazine (4 mg kg−1) and perfused transcardially with 5-10 ml of ice-cold artificial CSF (aCSF) comprising (in mM): 125 NaCl, 2.5 KCl, 1.25 NaH2PO4, 2.0 CaCl2, 1.0 MgCl2, 26 NaHCO3 and 10 glucose (305 mOsm l^−1). Parasagittal corticostriatal slices (250 μm) were cut in ice-cold external solution containing (mM) 110 choline chloride, 26 NaHCO3, 1.25 NaH2PO4, 2.5 KCl, 0.5 CaCl2, 7 MgCl2, 11.6 sodium ascorbate, 3.1 sodium pyruvate and 5 glucose (305 mOsm l^−1). Slices were then transferred to a holding chamber containing aCSF. After an incubation period at 34° C. for 30 min, the slices were then kept in the holding chamber at the room temperature for another 30 min before use.
(§2) To determine if M4Rs were modulating synaptic plasticity, a spike-timing-dependent plasticity (STDP) paradigm was used. […] Once identified, neurons were monitored and controlled with perforated-patch recording to preserve intracellular signaling mechanisms and to allow stable, long-term monitoring of synaptic strength (FIG. 1A).

[4] = tested on: dSPN glutamatergic synapses; assay: Spike-timing-dependent LTD induction (post-pre pairing) in dSPNs, ex vivo corticostriatal slices, perforated-patch or whole-cell recording; assay type: cell-based, mice
Text: Male C57Bl/6 and FVB mice expressing tdTomato or eGFP under control of either the Drd1 or Drd2 receptor regulatory elements were used. All the mice used for the study were hemizygous for these transgenes. For some experiments, D1-tdTomato BAC mice were crossed with a transgenic line expressing Cre recombinase under control of the ChAT promoter. All mice were 8-10 weeks of age before stereotaxic surgery. Animal use procedures were reviewed and approved by the Northwestern Institutional Animal Care and Use Committee.
Slices were then transferred to a holding chamber containing aCSF. After an incubation period at 34° C. for 30 min, the slices were then kept in the holding chamber at the room temperature for another 30 min before use.
Individual slices were transferred to a recording chamber and were continuously perfused (2-3 ml min^−1) with aCSF for the duration of the experiment. Experiments were performed in the dorsolateral striatum at elevated temperature (30-31° C.).
All the recordings were made using a MultiClamp 700 A amplifier, and signals were filtered at 2 kHz and digitized at 10 kHz. Data were excluded when the series resistance changed >20% over the time course of the experiment. […] Capacitance current was continuously monitored during perforation by applying a 5-10 mV pulse from a holding potential of −70 mV. The amplifier bridge circuit was adjusted to compensate for series resistance and continuously monitored during recordings. Electrode capacitance was also compensated. Data were excluded when the input resistance (Ri) changed >20% over the time course of the experiment.
Data analysis was conducted with Igor Pro 6 (Wavemetrics, Lake Oswego, Oreg.) and Clampfit 9 (Molecular Devices). EPSP amplitude was calculated from 50-60 sweeps immediately before the start of induction and 20-30 min after the end of induction. The change in EPSP amplitude was calculated by averaging EPSP values after the induction and normalized to the average baseline EPSP amplitude. Compiled data were expressed as mean±s.e.m. Statistical tests were performed using Excel (Microsoft, Redmond, Wash.) and SigmaStat (Systat, San Jose, Calif.). Non-parametric Mann-Whitney or Wilcoxon tests were used to assess the experiment results, using a probability threshold of 0.05.
as §2
Synaptic plasticity was induced by pairing local stimulation of glutamatergic afferent fibers with postsynaptic spikes evoked by short bursts of intracellular current injection that were repeated at 5 Hz (FIGS. 1B, 4A).

Molecule	primate dyskinetic scores [1]	anti-parkinsonian effect of L-DOPA on PD disability [2]	LTD induction in iSPNs [3]	LTD induction in dSPNs ([4]; MT3 100 nM with CNO)	LTD induction in dSPNs (EPSP amplitude) ([4]; MT3 100 nM with physostigmine 10 μM + VU10010 5 μM, 20 repetitions)	LTD induction in dSPNs (EPSP amplitude) ([4]; post-pre pairing, MT3 100 nM along with SCH23390)
Cc1nnc2sc(C(=O)NCc3ccc(-c4cccnc4F)cc3)c(N)c2c1C [VU0476406]	reduction in primate dyskinetic scores	did not occur at the expense of anti-parkinsonian effect of L-DOPA				
muscarinic toxin 3 (protein, UniProt P81031 1-65, looked up) Muscarinic toxin 3: LTCVTKNTIFGITTENCPAGQNLCFKRWHYVIPRYTEITRGCAATCPIPENYDSIHCCKTDKCNE			LTD was induced	LTD was blunted	induction was blunted	blocked induction of LTD; also recorded: LTD was disrupted
